Data as given in publication PMC4764573, “A deep proteomics perspective on CRM1-mediated nuclear export and nucleocytoplasmic partitioning” (eLife, 2015).

Target: mmCRM1 (mouse CRM1), in solution in the direct binding assay (mouse, UniProt Q6P5F9 1-1071)
Assay: pull-down; 250 pmoles His14-ZZ-bdSUMO tagged candidate on 20 μl anti-ZZ beads; 300 pmoles mmCRM1 with or without 1500 pmoles RanGTP (hsRanQ69L^5-180) in 500 µl; 3 hr at 4°C; elution by bdSENP1 protease; SDS-PAGE and Coomassie-staining
Conditions: both partners purified

Sequence of mmCRM1 (mouse CRM1), in solution in the direct binding assay (Q6P5F9 whole entry): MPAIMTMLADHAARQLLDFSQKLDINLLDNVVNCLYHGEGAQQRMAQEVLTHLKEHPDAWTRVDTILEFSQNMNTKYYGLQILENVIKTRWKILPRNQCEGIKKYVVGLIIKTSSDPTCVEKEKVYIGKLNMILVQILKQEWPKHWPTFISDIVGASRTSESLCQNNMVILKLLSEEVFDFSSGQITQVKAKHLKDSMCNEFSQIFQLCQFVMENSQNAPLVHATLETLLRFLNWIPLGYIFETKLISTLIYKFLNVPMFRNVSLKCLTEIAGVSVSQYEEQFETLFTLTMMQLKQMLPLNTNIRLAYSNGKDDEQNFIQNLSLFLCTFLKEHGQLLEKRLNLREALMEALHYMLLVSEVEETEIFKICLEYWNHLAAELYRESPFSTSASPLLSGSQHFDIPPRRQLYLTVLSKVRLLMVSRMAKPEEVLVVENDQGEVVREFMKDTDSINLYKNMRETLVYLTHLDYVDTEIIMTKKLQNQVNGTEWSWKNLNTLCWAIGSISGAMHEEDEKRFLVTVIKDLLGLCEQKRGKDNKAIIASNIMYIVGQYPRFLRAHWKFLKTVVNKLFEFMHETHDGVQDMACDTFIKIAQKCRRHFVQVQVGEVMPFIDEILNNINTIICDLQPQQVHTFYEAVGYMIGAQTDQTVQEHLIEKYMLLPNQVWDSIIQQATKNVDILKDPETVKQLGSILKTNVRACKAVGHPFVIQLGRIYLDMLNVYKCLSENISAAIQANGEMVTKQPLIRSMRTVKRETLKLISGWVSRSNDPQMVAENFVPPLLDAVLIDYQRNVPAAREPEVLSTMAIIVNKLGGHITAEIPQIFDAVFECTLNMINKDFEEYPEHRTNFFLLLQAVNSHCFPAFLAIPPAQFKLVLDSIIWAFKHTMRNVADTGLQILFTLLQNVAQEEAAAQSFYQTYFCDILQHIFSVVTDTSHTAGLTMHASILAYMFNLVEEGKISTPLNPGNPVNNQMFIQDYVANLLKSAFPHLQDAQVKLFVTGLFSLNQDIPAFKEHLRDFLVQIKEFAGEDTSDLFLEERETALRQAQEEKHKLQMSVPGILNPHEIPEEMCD

B1: H14-ZZ-Sumo tagged ARP2/3 1b (natural protein)
chain: not shown
notes: subunit 1b of the ARP2/3 complex, Xenopus; see Supplementary file 6; also called subunit 1b of the ARP2/3 complex; source: E. coli, purified (Ni2+ chelate chromatography, imidazole elution)
  binding result: binds
